Earlier results as cited in paper PMC10845085.

Molecular target: Neurotensin (Homo sapiens) (UniProt P30990)

For “Neurotensin receptor 2 (from UniProt O95665)”, the Kd is listed as 6 nM.
